Patent US20230093169A1, “COMBINATIONS OF ANTIBODY CONSTRUCTS AND INHIBITORS OF CYTOKINE RELEASE SYNDROME AND USES THEREOF” (AMGEN RESEARCH (MUNCH) GMBH, priority 2020, published 2023)

What was measured:
[1] = cited from earlier work
[2] = test system: VCAM-1 expression on CD31+HUVEC; assay: Blinatumumab VCAM assay: VCAM-1 on CD31+ HUVEC in co-cultures with T cells and NALM-6; format: cell-based, human; conditions: isolated T cells and NALM-6
Description: FIG. 7. VCAM-1 Expression on HUVEC in AMG 103 Co-culture Assays: VCAM-1 expression by flow cytometry. […] expression levels are expressed as Median Fluorescence Intensity (MFI). VCAM-1 expressing HUVEC are expressed as percentage of CD31+HUVEC. Error bars indicate the standard error of the mean of duplicate measurements. Two PBMC donors were used in this experiment.
The effect of blinatumomab (AMG 103) on T cell activation and the induction of VCAM-1 on endothelial cells was analyzed in co-cultures of HUVEC, isolated T cells and CD19-expressing NALM-6 target cells. VCAM-1 expression on CD31+HUVEC was analyzed by flow cytometry.

[3] = biological target: T1, TNF-α (Homo sapiens, UniProt P01375); assay: Etanercept prophylaxis for PSMA-targeting BiTE-related CRS in humans; format: in vivo
T1 construct: endogenous in cells; host or cells: human subjects (clinical cohort), in vivo
Description: Etanercept premedication occurred within two days before BiTE administration to assess whether prophylaxis with the TNF-α inhibitor decreases the frequency and severity of CRS without compromising the efficacy of the BiTE. In an initial cohort of 6 to 8 subjects, the PSMA-targeting BiTE is administered. In addition to dexamethasone prophylaxis, subjects in the cohort received prophylaxis with etanercept (50 mg subcutaneously [SC]) two days prior to each dose of PSMA-targeting BiTE in the first administration cycle.
Subject incidence of safety events, including dose-limiting toxicities (DLTs), serious adverse events (SAEs), and adverse events leading to treatment discontinuation or dose reduction, will be reviewed when at least 3 DLT-evaluable subjects complete the DLT window. Subjects receiving three individual increasing doses of PSMA-targeting BiTE with etanercept prophylaxis experienced 1 DLT/SAE (grade 3 (G3) thrombocytopenia), 1 SAE (Grade 3 (G3) Afib), 0 dose reductions, 1 discontinuation (tolerability), CRS events in cycle 1: 4 grade 2 (G2), no grade 3/4 (G3/4). […] In the latter group 1 DLT/SAE (G3 Hypoacusis), 2 SAE (grade 3 (G3) Pruritus, grade 2/3 (G2/G3) CRS), 2 dose reductions, 2 discontinuations (disease progression), and CRS events in cycle 1: 4 grade 1 (G1), 7 grade 2 (G2), 4 grade 3 (G3) were observed. In the etanercept prophylaxis group the PSMA-targeting BiTE was administered at the same dosages and frequency as in the group without etanercept prophylaxis.

[4] = test system: MCP-1 release in HUVEC co-cultured with CD19-expressing NALM-6 cells and human PBMC; assay: BiTE-induced MCP-1 release in co-culture of HUVEC, NALM-6 cells and human PBMC, with or without etanercept; format: cell-based; conditions: HUVEC + NALM-6 + human PBMC; after 2 and 5 hours
Source text: FIG. 6. AMG 103-mediated MCP-1 Secretion: MCP-1 concentrations in cell culture supernatants were quantified by the BD Cytometric CBA human MCP-1 Flex Set. Error bars in both graphs indicate the standard error of the mean of duplicate measurements.
Human umbilical vein endothelial cells (HUVEC) were co-cultured with CD19-expressing NALM-6 cells and human PBMC and increasing concentrations of BiTE® antibody construct blinatumomab (AMG 103) against CD19 in the absence or presence of etanercept. MCP-1 concentrations were determined with the BD Cytometric CBA human MCP-1 Flex set system (BD, Germany after 2 and 5 hours, respectively according to the manufacturer's instructions and are shown in FIG. 6.

[5] = subjects on PSMA-targeting BiTE with prophylaxis

T1 sequence (P01375 77-233 limits assumed): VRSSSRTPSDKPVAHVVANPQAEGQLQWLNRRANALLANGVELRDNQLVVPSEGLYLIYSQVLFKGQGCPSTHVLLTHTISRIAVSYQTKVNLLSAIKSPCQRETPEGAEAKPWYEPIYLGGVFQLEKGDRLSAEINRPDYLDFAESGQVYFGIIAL

In the case of etanercept, the half-life ([1]; mean±SD) is listed as 102 ± 30 h, the “time of maximum concentration [tmax], mean±SD” value ([1]; subcutaneous, slow absorption) is listed as 69 ± 34 h and the “sensitivity of AMG 103-induced VCAM-1 up-regulation to TNF blockade” value [2] is listed as “sensitive”. The “CRS safety profile compared with no premedication or premedication with tocilizumab” value ([3]; PSMA-targeting BiTE at same dosages and frequency) was “improves CRS safety profile”, the “CRS events in cycle 1, grade 2 (G2)” value [3, 5] was 4 and the “CRS events in cycle 1, grade 3/4 (G3/4)” value [3, 5] was “no grade 3/4”. The SAE [3, 5] was 1, the discontinuations [3, 5] was 1 and the dose reductions [3, 5] was 0. The DLT/SAE ([3]; subjects on PSMA-targeting BiTE with prophylaxis (etanercept 50 mg SC two days prior; tocilizumab 8 mg/kg two hours before first dose)) was 1 and the “effect on BiTE molecule (AMG 103) induced MCP-1 release” value [4] was “Blocked”.

In the case of “tocilizumab: monoclonal antibody that competes with the binding of IL-6 to its receptor, IL-6R”, the “CRS events in cycle 1, grade 1 (G1)” value ([3]; in vivo) is reported as 4, the “CRS events in cycle 1, grade 2 (G2)” value ([3]; in vivo) is reported as 7 and the “CRS events in cycle 1, grade 3 (G3)” value ([3]; in vivo) is reported as 4. For the same substance, the SAE ([3]; in vivo) was 2, the discontinuations ([3]; in vivo) was 2 and the dose reductions ([3]; in vivo) was 2.

In the case of “AMG 103: BiTE® antibody construct against CD19”, the “VCAM-1 expression on CD31+HUVEC” value ([2]; co-cultures of HUVEC, flow cytometry) is reported as “up-regulated”.
